For the data set, the system named is T1, Gln-Pro-Gln-Gly-Leu-Ala-Lys (QPQGLAK) peptide crosslinker.
T1 sequence: QPQGLAK

For “general collagenase from Clostridium histolyticum”, the kcat/Km (s^-1M^-1), digestion kinetics by HPLC stood at 32 s^-1M^-1.
